Measured values reported in patent US20170312343A1, “Uses of FAHD1” (UNIVERSITÄT INNSBRUCK, priority 2014, published 2017).

Key:
[1] = target: T1, FAHD1 (Homo sapiens, UniProt Q6P587); test: oxalate inhibitor assay (oxaloacetate decarboxylase assay); assay type: biochemical; details: purified recombinant wild-type FAHD1, room temperature, pH 7.4, absorbance 255 nm, FIG. 2C; read-out: IC50, inhibition of oxaloacetate decarboxylation by FAHD1
T1 construct: His-tag (N); S-tag (N); made in house; host or cells: E. coli
T1 sequence (Q6P587 25-221): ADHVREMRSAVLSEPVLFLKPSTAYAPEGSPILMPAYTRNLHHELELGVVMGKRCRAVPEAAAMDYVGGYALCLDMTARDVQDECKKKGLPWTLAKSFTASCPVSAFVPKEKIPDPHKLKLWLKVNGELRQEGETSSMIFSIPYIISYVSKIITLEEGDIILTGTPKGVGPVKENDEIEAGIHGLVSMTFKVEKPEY
Protocol: (§1) N-terminally His- and S-tagged versions of human wild-type FAHD1 and a double mutant (Asp102Ala, Arg106Ala) were recombinantly expressed in E. coli and purified as reported previously (Pircher et al., J Biol Chem, 2011, 286(42)).
(§2) For measurement of oxaloacetate decarboxylase rates, 1 ml samples of 25 μM to 1 mM oxaloacetate in assay buffer (50 mM Tris-HCl, 100 mM KCl, 1 mM MgCl2, pH 7.4) containing purified FAHD1, FAHD1mut (3-60 μg, depending on substrate concentration) or no enzyme were prepared. Samples were incubated at room temperature and analysed in regular time intervals by measuring absorbance (infinite M200, Tecan) at 255 nm (ε=1070 M^−1 cm^−1) in disposable UV-cuvettes (Brand). Reaction mixtures containing no substrate were used as blank. For the oxalate inhibitor assay, the sample buffer was supplemented with 200 μM sodium oxalate. All rates were corrected for auto-decarboxylation under assay conditions.

[2] = oxaloacetate decarboxylase assay, photometric, enzyme kinetics of purified FAHD1; assay type: biochemical, human; details: purified wild-type enzyme, room temperature, pH 7.4, FIG. 2A
Protocol: as §1, §2

O=C([O-])C(=O)[O-].[Na+].[Na+] [oxalate, sodium oxalate]
IC50 [1]: ~20 µM

B1: fumarylacetoacetate hydrolase domain containing protein 1 (protein, UniProt Q6P587 25-221, looked up)
Oxaloacetate tautomerase …: ADHVREMRSAVLSEPVLFLKPSTAYAPEGSPILMPAYTRNLHHELELGVVMGKRCRAVPEAAAMDYVGGYALCLDMTARDVQDECKKKGLPWTLAKSFTASCPVSAFVPKEKIPDPHKLKLWLKVNGELRQEGETSSMIFSIPYIISYVSKIITLEEGDIILTGTPKGVGPVKENDEIEAGIHGLVSMTFKVEKPEY
notes: recombinant human wild-type FAHD1 expressed in E. coli
Km [2]: 32 µM
Vmax of oxaloacetate degradation [2]: 0.21 µmol/min/mg
